Experimental data: the Immune Epitope Database (IEDB)

Key:
HLA-A*24:03 = assay: IEDB peptide-MHC binding, purified MHC/competitive/fluorescence; filed as Kd, often an IC50 or EC50 that approximates it; ≥ and ≤ were set here for values at or beyond the usual limits of such assays
HLA-B*39:01 = assay: as above
HLA-C*04:01 [1] = assay: IEDB peptide-MHC binding, purified MHC/direct/fluorescence; filed as Kd, often an IC50 or EC50 that approximates it; ≥ and ≤ were set here for values at or beyond the usual limits of such assays
HLA-B*45:06 = assay: IEDB peptide-MHC binding, purified MHC/competitive/fluorescence; filed as Kd, often an IC50 or EC50 that approximates it; ≥ and ≤ were set here for values at or beyond the usual limits of such assays
HLA-A*32:07 = assay: as above
HLA-B*40:13 = assay: as above
HLA-B*48:01 = assay: as above; details: source organism: Burkholderia mallei SAVP1
HLA-B*27:20 = assay: as above
HLA-B*15:42 = assay: as above
HLA-B*83:01 = assay: as above
HLA-C*06:02 [2] = assay: IEDB peptide-MHC binding, purified MHC/direct/fluorescence; filed as Kd, often an IC50 or EC50 that approximates it; ≥ and ≤ were set here for values at or beyond the usual limits of such assays
HLA-A*26:01 = assay: IEDB peptide-MHC binding, purified MHC/competitive/fluorescence; filed as Kd, often an IC50 or EC50 that approximates it; ≥ and ≤ were set here for values at or beyond the usual limits of such assays; details: source organism: Orthohantavirus sinnombreense
HLA-B*27:03 = assay: as above; details: source organism: Orthohantavirus sinnombreense
HLA-A*68:23 = assay: as above
HLA-C*06:02 [3] = assay: as above; details: source organism: Orthohantavirus sinnombreense
HLA-B*51:01 = assay: as above; details: source organism: Orthohantavirus sinnombreense
HLA-A*32:15 = assay: as above
HLA-B*18:01 = assay: as above; details: source organism: Orthohantavirus sinnombreense
HLA-C*14:02 = assay: as above
HLA-A*03:19 = assay: as above; details: source organism: Orthohantavirus sinnombreense
HLA-C*05:01 = assay: IEDB peptide-MHC binding, purified MHC/direct/fluorescence; filed as Kd, often an IC50 or EC50 that approximates it; ≥ and ≤ were set here for values at or beyond the usual limits of such assays; details: source organism: Orthohantavirus sinnombreense
HLA-A*02:01 [4] = assay: as above
HLA-A*03:01 [5] = assay: as above; details: source organism: Limestone Canyon virus
HLA-B*27:05 = assay: IEDB peptide-MHC binding, purified MHC/competitive/fluorescence; filed as Kd, often an IC50 or EC50 that approximates it; ≥ and ≤ were set here for values at or beyond the usual limits of such assays; details: source organism: Salmonella enterica subsp. enterica serovar Typhi
HLA-B*15:01 = assay: as above
HLA-A*02:01 [6] = assay: as above; details: source organism: Salmonella enterica subsp. enterica serovar Typhi
HLA-A*24:02 = assay: as above
HLA-C*07:02 = assay: IEDB peptide-MHC binding, purified MHC/direct/fluorescence; filed as Kd, often an IC50 or EC50 that approximates it; ≥ and ≤ were set here for values at or beyond the usual limits of such assays; details: source organism: Salmonella enterica subsp. enterica serovar Typhi str. CT18
HLA-B*40:01 = assay: IEDB peptide-MHC binding, purified MHC/competitive/fluorescence; filed as Kd, often an IC50 or EC50 that approximates it; ≥ and ≤ were set here for values at or beyond the usual limits of such assays; details: source organism: Escherichia coli B7A
HLA-C*12:03 = assay: IEDB peptide-MHC binding, purified MHC/direct/fluorescence; filed as Kd, often an IC50 or EC50 that approximates it; ≥ and ≤ were set here for values at or beyond the usual limits of such assays; details: source organism: Bacillus anthracis str. A0488
HLA-A*02:11 = assay: IEDB peptide-MHC binding, purified MHC/competitive/fluorescence; filed as Kd, often an IC50 or EC50 that approximates it; ≥ and ≤ were set here for values at or beyond the usual limits of such assays; details: source organism: Haemophilus influenzae
HLA-A*02:06 = assay: as above; details: source organism: Haemophilus influenzae
HLA-A*01:01 = assay: IEDB peptide-MHC binding, purified MHC/direct/fluorescence; filed as Kd, often an IC50 or EC50 that approximates it; ≥ and ≤ were set here for values at or beyond the usual limits of such assays; details: source organism: Haemophilus influenzae
HLA-A*69:01 = assay: as above; details: source organism: Haemophilus influenzae
HLA-C*04:01 [7] = assay: IEDB peptide-MHC binding, purified MHC/competitive/fluorescence; filed as Kd, often an IC50 or EC50 that approximates it; ≥ and ≤ were set here for values at or beyond the usual limits of such assays
HLA-A*03:01 [8] = assay: as above; details: source organism: Cryptosporidium parvum Iowa II
HLA-C*15:02 = assay: IEDB peptide-MHC binding, purified MHC/direct/fluorescence; filed as Kd, often an IC50 or EC50 that approximates it; ≥ and ≤ were set here for values at or beyond the usual limits of such assays
HLA-B*35:01 = assay: IEDB peptide-MHC binding, purified MHC/competitive/fluorescence; filed as Kd, often an IC50 or EC50 that approximates it; ≥ and ≤ were set here for values at or beyond the usual limits of such assays; details: source organism: Yersinia pestis Nepal516
[9] = source organism: Escherichia coli str. K-12 substr. MG1655
[10] = source organism: Burkholderia mallei SAVP1
[11] = source organism: Orthohantavirus sinnombreense
[12] = source organism: Salmonella enterica subsp. enterica serovar Typhi
[13] = source organism: Bacillus anthracis str. A0488
[14] = source organism: Cryptosporidium parvum Iowa II
[15] = source organism: Encephalitozoon cuniculi GB-M1
[16] = source organism: Yersinia pestis Nepal516

**Q.** With RYDKSAADL as the sequence, how does the Kd (HLA-A*24:03; [9]) read?
**A.** The Kd was 474 nM.

**Q.** What about the Kd (HLA-B*39:01; [9]) of the same sequence?
**A.** Its Kd is ≥ 20000 nM.

**Q.** What about the Kd (HLA-C*04:01 [1]; [9]) of the same sequence?
**A.** Its Kd is ≥ 20000 nM.

**Q.** How did the Kd (HLA-B*45:06; [10]) turn out when RQYERYTAL was run?
**A.** The Kd was ≥ 5000 nM.

**Q.** And the Kd (HLA-A*32:07; [10])?
**A.** Its Kd is 7.5 nM.

**Q.** What about the Kd (HLA-B*40:13; [10]) of the same sequence?
**A.** The Kd was 37.7 nM.

**Q.** What about the Kd (HLA-B*48:01) of the same sequence?
**A.** Its Kd is 55.2 nM.

**Q.** What about the Kd (HLA-B*27:20; [10]) of the same sequence?
**A.** Its Kd is 0.3 nM.

**Q.** What about the Kd (HLA-B*15:42; [10]) of the same sequence?
**A.** Its Kd is 733 nM.

**Q.** And the Kd (HLA-B*83:01; [10])?
**A.** Its Kd is ≥ 5000 nM.

**Q.** What about the Kd (HLA-C*06:02 [2]; [10]) of the same sequence?
**A.** Its Kd is 1810 nM.

**Q.** Which Kd (HLA-B*45:06; [11]) does the source give for YTFTSLFSL here?
**A.** The Kd was ≥ 5000 nM.

**Q.** And the Kd (HLA-A*32:07; [11])?
**A.** The Kd was 856 nM.

**Q.** What about the Kd (HLA-A*26:01) of the same sequence?
**A.** Its Kd is ≥ 20000 nM.

**Q.** What about the Kd (HLA-B*27:03) of the same sequence?
**A.** Its Kd is ≥ 20000 nM.

**Q.** What about the Kd (HLA-A*68:23; [11]) of the same sequence?
**A.** The Kd was 14.2 nM.

**Q.** What about the Kd (HLA-C*06:02 [3]) of the same sequence?
**A.** Its Kd is 146 nM.

**Q.** What about the Kd (HLA-B*51:01) of the same sequence?
**A.** Its Kd is ≥ 20000 nM.

**Q.** And the Kd (HLA-A*32:15; [11])?
**A.** The Kd was 82.2 nM.

**Q.** And the Kd (HLA-B*15:42; [11])?
**A.** The Kd was ≥ 5000 nM.

**Q.** And the Kd (HLA-B*18:01)?
**A.** The Kd was ≥ 20000 nM.

**Q.** What about the Kd (HLA-C*14:02; [11]) of the same sequence?
**A.** The Kd was 5.8 nM.

**Q.** And the Kd (HLA-A*03:19)?
**A.** The Kd was 3070 nM.

**Q.** And the Kd (HLA-B*83:01; [11])?
**A.** Its Kd is ≥ 5000 nM.

**Q.** And the Kd (HLA-C*05:01)?
**A.** The Kd was ≥ 20000 nM.

**Q.** And the Kd (HLA-A*02:01 [4]; source organism: Itapua hantavirus)?
**A.** Its Kd is 1.5 nM.

**Q.** And the Kd (HLA-A*03:01 [5])?
**A.** Its Kd is ≥ 20000 nM.

**Q.** How did the Kd (HLA-B*45:06; [12]) turn out when KQLELFWVI was run?
**A.** The Kd was 833 nM.

**Q.** What about the Kd (HLA-A*32:07; [12]) of the same sequence?
**A.** Its Kd is 1.1 nM.

**Q.** And the Kd (HLA-B*27:05)?
**A.** The Kd was 66.1 nM.

**Q.** What about the Kd (HLA-B*40:13; [12]) of the same sequence?
**A.** The Kd was 4.2 nM.

**Q.** And the Kd (HLA-B*27:20; [12])?
**A.** Its Kd is 1.3 nM.

**Q.** What about the Kd (HLA-B*15:42; [12]) of the same sequence?
**A.** Its Kd is 2470 nM.

**Q.** And the Kd (HLA-B*15:01; [12])?
**A.** Its Kd is 497 nM.

**Q.** And the Kd (HLA-B*39:01; [12])?
**A.** Its Kd is 6 nM.

**Q.** And the Kd (HLA-A*02:01 [6])?
**A.** Its Kd is ≤ 1 nM.

**Q.** What about the Kd (HLA-A*24:02; [12]) of the same sequence?
**A.** Its Kd is 0.2 nM.

**Q.** And the Kd (HLA-B*83:01; [12])?
**A.** The Kd was ≥ 5000 nM.

**Q.** What about the Kd (HLA-C*07:02) of the same sequence?
**A.** Its Kd is ≥ 20000 nM.

**Q.** For GEHVPEIIL, which Kd (HLA-B*40:01) is on record?
**A.** The Kd was 1.7 nM.

**Q.** Which results are given for YFIFVRAIL?
**A.** Kd (HLA-A*24:03; [13]): 36.7 nM; Kd (HLA-C*04:01 [1]; [13]): ≥ 20000 nM; Kd (HLA-C*12:03): 436 nM

**Q.** YINMAWNLV was tested. Which Kd (HLA-A*02:11) did it give?
**A.** Its Kd is ≤ 0.1 nM.

**Q.** And the Kd (HLA-A*02:06)?
**A.** Its Kd is ≤ 0.1 nM.

**Q.** What about the Kd (HLA-A*02:01 [4]; source organism: Haemophilus influenzae) of the same sequence?
**A.** Its Kd is 135 nM.

**Q.** And the Kd (HLA-A*01:01)?
**A.** The Kd was 625 nM.

**Q.** What about the Kd (HLA-A*69:01) of the same sequence?
**A.** The Kd was 639 nM.

**Q.** For VGYYTFHPK, which Kd (HLA-B*45:06; [14]) is on record?
**A.** Its Kd is ≥ 5000 nM.

**Q.** What about the Kd (HLA-C*04:01 [7]; [14]) of the same sequence?
**A.** Its Kd is ≥ 5000 nM.

**Q.** And the Kd (HLA-B*15:42; [14])?
**A.** Its Kd is ≥ 5000 nM.

**Q.** And the Kd (HLA-B*83:01; [14])?
**A.** The Kd was ≥ 5000 nM.

**Q.** What about the Kd (HLA-A*03:01 [8]) of the same sequence?
**A.** Its Kd is 0.9 nM.

**Q.** TTLSIYFLL was tested. Which Kd (HLA-A*24:02; [15]) did it give?
**A.** Its Kd is 86.6 nM.

**Q.** And the Kd (HLA-C*15:02; [15])?
**A.** Its Kd is 3660 nM.

**Q.** For MMMSTAVAF, which Kd (HLA-B*45:06; [16]) is on record?
**A.** The Kd was ≥ 5000 nM.

**Q.** And the Kd (HLA-A*32:07; [16])?
**A.** Its Kd is 94.5 nM.

**Q.** And the Kd (HLA-C*04:01 [7]; [16])?
**A.** The Kd was 3230 nM.

**Q.** What about the Kd (HLA-B*40:13; [16]) of the same sequence?
**A.** The Kd was 365 nM.

**Q.** What about the Kd (HLA-A*68:23; [16]) of the same sequence?
**A.** Its Kd is 650 nM.

**Q.** What about the Kd (HLA-A*32:15; [16]) of the same sequence?
**A.** The Kd was 248 nM.

**Q.** And the Kd (HLA-B*15:42; [16])?
**A.** The Kd was ≥ 5000 nM.

**Q.** And the Kd (HLA-B*15:01; [16])?
**A.** The Kd was 541 nM.

**Q.** What about the Kd (HLA-C*14:02; [16]) of the same sequence?
**A.** Its Kd is 1.1 nM.

**Q.** And the Kd (HLA-B*35:01)?
**A.** The Kd was 0.6 nM.

**Q.** What about the Kd (HLA-B*83:01; [16]) of the same sequence?
**A.** The Kd was ≥ 5000 nM.

**Q.** And the Kd (HLA-C*15:02; [16])?
**A.** Its Kd is ≥ 20000 nM.

**Q.** And the Kd (HLA-C*06:02 [2]; [16])?
**A.** Its Kd is ≥ 20000 nM.
